Data taken from paper PMC10570036, “Yeast transcription factor Msn2 binds to G4 DNA”.

How the values were obtained:
[1] = target: T1, GST-Msn2(596-704) zinc-finger domain (Saccharomyces cerevisiae, UniProt P33748 596-704); assay: EMSA; folded in 100 mM K+; EMSA: oligos (0.1 uM) folded in 10 mM Tris-HCl pH 7.5, 100 mM KCl or LiCl; binding in 10 mM Tris-HCl pH 8.0, 1 mM DTT, 0.01% NP-40, 5% glycerol, 50 uM ZnSO4, room temperature 30 min; pull-down: 400 pmol biotin oligo folded in 100 mM KCl or LiCl, streptavidin beads, yeast whole cell lysate; settings: protein: recombinant, tags: N-terminal GST (pGEX4T1), label: 5' Cy5
T1 sequence: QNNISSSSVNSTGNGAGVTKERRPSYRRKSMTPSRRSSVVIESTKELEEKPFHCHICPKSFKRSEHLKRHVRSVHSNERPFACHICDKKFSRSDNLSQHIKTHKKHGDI

[2] = target: T1, GST-Msn2(596-704) zinc-finger domain; assay: EMSA; folded in 100 mM K+; 50 uM Zn2+; EMSA: oligos (0.1 uM) folded in 10 mM Tris-HCl pH 7.5, 100 mM KCl or LiCl; binding in 10 mM Tris-HCl pH 8.0, 1 mM DTT, 0.01% NP-40, 5% glycerol, 50 uM ZnSO4, room temperature 30 min; pull-down: 400 pmol biotin oligo folded in 100 mM KCl or LiCl, streptavidin beads, yeast whole cell lysate; settings: protein: recombinant, tags: N-terminal GST (pGEX4T1), label: 5' Cy5
[3] = target: T1, GST-Msn2(596-704) zinc-finger domain; assay: EMSA; folded in K+ or Li+; no significant interaction; EMSA: oligos (0.1 uM) folded in 10 mM Tris-HCl pH 7.5, 100 mM KCl or LiCl; binding in 10 mM Tris-HCl pH 8.0, 1 mM DTT, 0.01% NP-40, 5% glycerol, 50 uM ZnSO4, room temperature 30 min; pull-down: 400 pmol biotin oligo folded in 100 mM KCl or LiCl, streptavidin beads, yeast whole cell lysate; settings: protein: recombinant; tags: N-terminal GST (pGEX4T1); label: 5' Cy5; G4
[4] = target: T1, GST-Msn2(596-704) zinc-finger domain; assay: EMSA; EMSA: oligos (0.1 uM) folded in 10 mM Tris-HCl pH 7.5, 100 mM KCl or LiCl; binding in 10 mM Tris-HCl pH 8.0, 1 mM DTT, 0.01% NP-40, 5% glycerol, 50 uM ZnSO4, room temperature 30 min; pull-down: 400 pmol biotin oligo folded in 100 mM KCl or LiCl, streptavidin beads, yeast whole cell lysate; settings: protein: recombinant; tags: N-terminal GST (pGEX4T1); label: 5' Cy5 on sense strand; blunt
[5] = target: T1, GST-Msn2(596-704) zinc-finger domain; assay: EMSA; 100 mM K+; EMSA: oligos (0.1 uM) folded in 10 mM Tris-HCl pH 7.5, 100 mM KCl or LiCl; binding in 10 mM Tris-HCl pH 8.0, 1 mM DTT, 0.01% NP-40, 5% glycerol, 50 uM ZnSO4, room temperature 30 min; pull-down: 400 pmol biotin oligo folded in 100 mM KCl or LiCl, streptavidin beads, yeast whole cell lysate; settings: protein: recombinant; tags: N-terminal GST (pGEX4T1); label: 5' Cy5 on sense strand; blunt

B1: Cy5-ATG7 G4 (structured_DNA)
DNA: ATTCTTGGGGCTGGGGTCCCTTGGGGAACTGTATTGGGTGAACC
Q: Does B1 bind ([1]; G4)?
A: Result: binds

B2: Cy5-ATG39pG4 (structured_DNA)
DNA: GGACCGGGGGCACACCGGGGTAGGGGGTCCGGAGGGTTAAC
Q: Which Kd ([2]; intramolecular parallel G4) does the source give for B2 here?
A: Its Kd is 30.2 ± 7.2 nM.

B3: c-KIT2Long (structured_DNA)
DNA: CCCGGGCGGGCGCGAGGGAGGGGAGG
Q: Does B3 bind [3]?
A: Result: no binding

B4: dsCTT1STREMut (dsDNA)
DNA 1: CTCTTTTTCATGTGTATCACCGGTATGTGTCCAATCTGTG
DNA 2: CACAGATTGGACACATACCGGTGATACACATGAAAAAGAG
Q: Does B4 bind [4]?
A: Result: no binding

B5: Cy5-SµG (structured_DNA)
DNA: GAGCTGGGGTGAGCTGGGCTGAGCTGGGGTGAGCTGGGCTGAGCT
Q: Does B5 bind ([1]; G4)?
A: Result: binds

B6: Cy5-ATG39pG4Mut (ssDNA)
DNA: GGACCGAGAGCACACCGAGATAGAGAGTCCGGAGAGTTAAC
Q: Does B6 bind [1]?
A: Result: no binding

B7: Cy5-TPS1pG4Mut (ssDNA)
DNA: CCGCTGAGCAGGTCAGAGCAGAGACTCTCAGAGAGACGCCA
Q: Does B7 bind [1]?
A: Result: no binding

B8: Cy5-BRCA1-G3 (structured_DNA)
DNA: TGGGTGTTGTTGGGGGAGGGAAATGGGT
Q: B8 was tested. Which Kd ([2]; parallel G4 in K+) did it give?
A: The Kd was 37.8 ± 11.4 nM.

B9: Cy5-c-KIT2 (structured_DNA)
DNA: GGGCGGGCGCGAGGGAGGGG
Q: Does B9 bind ([1]; G4)?
A: Result: no binding

B10: Cy5-TPS1pG4 (structured_DNA)
DNA: CCGCTGGGCAGGTCAGGGCAGGGGCTCTCAGGGGGGCGCCA
Q: Does B10 bind ([1]; G4)?
A: Result: binds

B11: dsCTT1 (dsDNA)
DNA 1: CTCTTTTTCAAGGGGATCACCGGTAAGGGGCCAATCTGTG
DNA 2: CACAGATTGGCCCCTTACCGGTGATCCCCTTGAAAAAGAG
Q: Does B11 bind [5]?
A: Result: binds
